Measured values from patent publication US20200317768A1 (published 2020).
Positions count from the first letter of the chain named. Numbers in names are those of the source.

T1: human FcγRIIaR extracellular domain, C-terminal His-tag (human, UniProt P12318 34-217)
T1 construct: also called human FcγRIIa (type R); FcgRIIaR; not shown: His-tag added to C-terminus
T1 chain: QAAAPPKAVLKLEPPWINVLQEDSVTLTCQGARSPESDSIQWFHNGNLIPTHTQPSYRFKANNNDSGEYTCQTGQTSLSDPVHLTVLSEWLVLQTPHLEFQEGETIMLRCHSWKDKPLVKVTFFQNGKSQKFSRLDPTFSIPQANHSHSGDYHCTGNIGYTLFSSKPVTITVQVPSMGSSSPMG

T2: cynomolgus monkey FcγRIIb extracellular domain, C-terminal His-tag (cynomolgus monkey)
T2 construct: also called cyno FcγRIIb; cynoFcγRIIb; not shown: His-tag added to C-terminus
T2 chain: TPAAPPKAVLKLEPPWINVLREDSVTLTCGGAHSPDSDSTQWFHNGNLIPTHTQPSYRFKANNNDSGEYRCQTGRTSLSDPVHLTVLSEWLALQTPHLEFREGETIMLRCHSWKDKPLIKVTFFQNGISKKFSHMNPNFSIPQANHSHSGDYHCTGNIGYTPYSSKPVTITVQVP

T3: cynomolgus monkey FcγRIIa1 extracellular domain, C-terminal His-tag (cynomolgus monkey)
T3 construct: also called cyno FcγRIIa1; cynoFcgRIIa1; not shown: His-tag added to C-terminus
T3 chain: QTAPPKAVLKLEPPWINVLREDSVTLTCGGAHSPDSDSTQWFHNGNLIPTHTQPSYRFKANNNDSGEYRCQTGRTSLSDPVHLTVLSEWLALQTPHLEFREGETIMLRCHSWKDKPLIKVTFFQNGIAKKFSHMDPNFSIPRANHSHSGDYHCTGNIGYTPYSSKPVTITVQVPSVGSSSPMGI

T4: human FcγRIIaR extracellular domain, His-tagged (human, UniProt P12318 34-217)
T4 construct: also called human FcgRIIaR; FcγRIIa (type R); not shown: His-tag added to the C-terminus
T4 chain: T1 chain

T5: human FcγRIIb extracellular domain, His-tagged (human, UniProt P31994 43-217)
T5 construct: also called human FcgRIIb; not shown: His-tag added to the C-terminus
T5 sequence: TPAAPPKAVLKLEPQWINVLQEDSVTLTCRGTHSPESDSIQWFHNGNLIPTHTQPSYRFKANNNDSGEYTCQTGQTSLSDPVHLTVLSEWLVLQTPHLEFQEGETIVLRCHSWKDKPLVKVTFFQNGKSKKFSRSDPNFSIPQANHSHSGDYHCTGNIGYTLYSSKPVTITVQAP

T6: cynomolgus monkey FcγRIIb extracellular domain, His-tagged (cynomolgus monkey)
T6 construct: also called cyno FcgRIIb; cynoFcγRIIb; not shown: His-tag added to the C-terminus
T6 chain: T2 chain

B1: MS_M103205H795-SG1/M103202L889-SK1 (antibody, human IgG1, kappa)
heavy: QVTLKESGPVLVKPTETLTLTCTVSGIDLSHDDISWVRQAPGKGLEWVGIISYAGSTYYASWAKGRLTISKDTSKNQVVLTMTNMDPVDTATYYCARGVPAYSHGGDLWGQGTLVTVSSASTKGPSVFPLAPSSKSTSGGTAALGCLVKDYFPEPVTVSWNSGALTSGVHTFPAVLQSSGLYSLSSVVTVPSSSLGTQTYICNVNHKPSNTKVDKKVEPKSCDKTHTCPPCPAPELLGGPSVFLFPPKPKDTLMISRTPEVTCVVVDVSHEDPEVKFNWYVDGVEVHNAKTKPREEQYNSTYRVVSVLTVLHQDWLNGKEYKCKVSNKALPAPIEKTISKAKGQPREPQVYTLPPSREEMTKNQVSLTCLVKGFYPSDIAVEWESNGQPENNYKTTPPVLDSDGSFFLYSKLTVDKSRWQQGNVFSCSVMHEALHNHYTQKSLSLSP
light: DIVMTQSPATLSLSPGERATLSCTSSQSVYHANWLSWFQQKPGQPPKLLIYWASTLAYGVPSRFSGSGSGTDFTLTISSLQPEDAATYYCAGGYGGGRYAFGQGTKVEIKRTVAAPSVFIFPPSDEQLKSGTASVVCLLNNFYPREAKVQWKVDNALQSGNSQESVTEQDSKDSTYSLSSTLTLSKADYEKHKVYACEVTHQGLSSPVTKSFNRGEC
notes: Parent antibody with SG1 human heavy chain constant region; also called MS1032LO06-SG1
B2: M103205H795-MY335 / M103202L889-SK1 (antibody, human IgG1, kappa)
heavy: QVTLKESGPVLVKPTETLTLTCTVSGIDLSHDDISWVRQAPGKGLEWVGIISYAGSTYYASWAKGRLTISKDTSKNQVVLTMTNMDPVDTATYYCARGVPAYSHGGDLWGQGTLVTVSSASTKGPSVFPLAPSSKSTSGGTAALGCLVKDYFPEPVTVSWNSGALTSGVHTFPAVLQSSGLYSLSSVVTVPSSSLGTQTYICNVNHKPSNTKVDKKVEPKSCDKTHTCPPCPAPELLTGPSVFLFPPKPKDTLMISRTPEVTCVVVDVSDEDPEVKFNWYVDGVEVHNAKTKPREEQYNSTYRVVSVLTVLHRDWLNGKEYKCKVSNKALPKPIEKTISKAKGQPREPQVYTLPPSREEMTKNQVSLTCLVKGFYPSDIAVEWESNGQPENNYKTTPPVLDSDGSFFLYSKLTVKKSRWQQGNVFSCSVMHEALHNHYTQKSLSLSP
light: B1 light
notes: CH with G236T/H268D/Q311R/A330K/D413K against SG1 (EU numbering); also called MS1032LO06-MY335
B3: M103205H795-PK2 / M103202L889-SK1 (antibody, human IgG1, kappa)
heavy: B2 heavy with T238N, D270E, R313Q, P398M, S402R
light: B1 light
notes: CH with G236N/H268E/A330K/P396M/S400R/D413K against SG1 (EU numbering); also called MS1032LO06-PK2; MS103205H795-PK2
B4: M103205H795-MY201 / M103202L889-SK1 (antibody, human IgG1, kappa)
heavy: B2 heavy with T238N, R313Q, K415D
light: B1 light
notes: CH with G236N/H268D/A330K against SG1 (EU numbering); also called MS1032LO06-MY201
B5: M103205H795-MY205 / M103202L889-SK1 (antibody, human IgG1, kappa)
heavy: B2 heavy with T238N, Q297L, R313Q, K415D
light: B1 light
notes: CH with G236N/H268D/Q295L/A330K against SG1 (EU numbering); also called MS1032LO06-MY205
B6: M103205H795-MY344 / M103202L889-SK1 (antibody, human IgG1, kappa)
heavy: B2 heavy with T238N, Q297L
light: B1 light
notes: CH with G236N/H268D/Q295L/Q311R/A330K/D413K against SG1 (EU numbering); also called MS1032LO06-MY344
B7: M103205H795-MY101 / M103202L889-SK1 (antibody, human IgG1, kappa)
heavy: B2 heavy with T238N, D270E, R313Q, P398M, K415D
light: B1 light
notes: CH with G236N/H268E/A330K/P396M against SG1 (EU numbering); also called MS1032LO06-MY101
B8: M103205H795-MY351 / M103202L889-SK1 (antibody, human IgG1, kappa)
heavy: B2 heavy with T238N
light: B1 light
notes: CH with G236N/H268D/Q311R/A330K/D413K against SG1 (EU numbering); also called MS1032LO06-MY351
B9: MS1032LO06-SG1 (M103205H795-SG1/M103202L889-SK1) (antibody, human IgG1, kappa)
heavy: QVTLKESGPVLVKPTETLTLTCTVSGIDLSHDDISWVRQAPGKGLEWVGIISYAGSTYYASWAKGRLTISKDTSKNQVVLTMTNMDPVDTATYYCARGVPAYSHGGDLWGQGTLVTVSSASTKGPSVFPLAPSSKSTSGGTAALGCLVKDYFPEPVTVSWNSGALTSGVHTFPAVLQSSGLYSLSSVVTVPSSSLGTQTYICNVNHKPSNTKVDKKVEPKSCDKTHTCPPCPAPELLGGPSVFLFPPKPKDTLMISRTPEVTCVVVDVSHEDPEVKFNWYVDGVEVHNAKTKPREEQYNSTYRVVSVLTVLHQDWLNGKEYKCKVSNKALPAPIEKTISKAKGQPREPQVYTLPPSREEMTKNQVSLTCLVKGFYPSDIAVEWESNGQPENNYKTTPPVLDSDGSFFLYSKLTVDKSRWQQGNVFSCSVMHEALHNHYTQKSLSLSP
light: B1 light
notes: Anti-latent myostatin antibody; Parent of the Fc variants; copies: 2 + 2
B10: M103205H795-MY260/M103202L889-SK1 (antibody, human IgG1, kappa)
heavy: B2 heavy with T238M, R313Q, K415D
light: B1 light
notes: copies: 2 + 2
B11: M103205H795-MY261/M103202L889-SK1 (antibody, human IgG1, kappa)
heavy: B2 heavy with T238H, R313Q, K415D
light: B1 light
notes: copies: 2 + 2
B12: M103205H795-MY201/M103202L889-SK1 (antibody, human IgG1, kappa)
heavy: B2 heavy with T238N, R313Q, K415D
light: B1 light
notes: Fc variant G236N/H268D/A330K (EU numbering) of SG1; also called MS1032LO06-MY201; copies: 2 + 2
B13: M103205H795-MY263/M103202L889-SK1 (antibody, human IgG1, kappa)
heavy: B2 heavy with T238Q, R313Q, K415D
light: B1 light
notes: copies: 2 + 2
B14: M103205H795-MY264/M103202L889-SK1 (antibody, human IgG1, kappa)
heavy: B2 heavy with T238L, R313Q, K415D
light: B1 light
notes: copies: 2 + 2
B15: M103205H795-MY262/M103202L889-SK1 (antibody, human IgG1, kappa)
heavy: B2 heavy with T238V, R313Q, K415D
light: B1 light
notes: copies: 2 + 2

Molecular target: T1, human FcγRIIaR extracellular domain, …
Assay: SPR (BIACORE); KD of SG1 / KD of variant
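Further: relative to parent M103205H795-SG1 carrying the SG1 human heavy chain constant region.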

KD fold (SG1 = 1)	Binder
1 fold	B1
3.8 fold	B2
1 fold	B3
0.6 fold	B4
0.8 fold	B5
0.9 fold	B6
1.3 fold	B7
0.7 fold	B8

Molecular target: T2, cynomolgus monkey FcγRIIb extracellular …
Assay: SPR (BIACORE); KD of SG1 / KD of variant

KD fold (SG1 = 1)	Binder
1 fold	B1
2.8 fold	B2
4.7 fold	B3
4.2 fold	B4
7.2 fold	B5
5.8 fold	B6
5.1 fold	B7
5.1 fold	B8

Molecular target: T7, cynomolgus monkey FcγRIIIaS extracellular domain, C-terminal His-tag (cynomolgus monkey, UniProt A3RFZ7 21-206 (rhesus entry))
T7 construct: also called cyno FcγRIIIaS; cynoFcγRIIIaS; not shown: His-tag added to C-terminus
Assay: SPR (BIACORE); KD of SG1 / KD of variant

T7 sequence (A3RFZ7 21-206): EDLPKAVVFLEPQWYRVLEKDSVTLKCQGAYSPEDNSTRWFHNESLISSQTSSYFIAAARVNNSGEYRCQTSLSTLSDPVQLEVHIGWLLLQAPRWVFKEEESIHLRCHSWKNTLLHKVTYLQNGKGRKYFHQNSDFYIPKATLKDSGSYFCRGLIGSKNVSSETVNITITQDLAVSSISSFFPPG

KD fold (SG1 = 1)	Binder
1 fold	B1
0.24 fold	B2
0.09 fold	B3
0.06 fold	B4
0.06 fold	B5
0.07 fold	B6
0.11 fold	B7
0.07 fold	B8

Molecular target: T3, cynomolgus monkey FcγRIIa1 …
Assay: SPR (BIACORE); KD of SG1 / KD of variant

KD fold (SG1 = 1)	Binder
1 fold	B1
1.6 fold	B2
2.5 fold	B3
2.3 fold	B4
3.6 fold	B5
3.6 fold	B6
2.9 fold	B7
3.5 fold	B8

Molecular target: T8, human FcγRIIIaV extracellular domain, C-terminal His-tag (human, UniProt P08637 17-208)
T8 construct: also called FcgRIIIaV; not shown: His-tag added to C-terminus
Assay: SPR (BIACORE); KD of SG1 / KD of variant

T8 sequence (P08637 17-208 F176V): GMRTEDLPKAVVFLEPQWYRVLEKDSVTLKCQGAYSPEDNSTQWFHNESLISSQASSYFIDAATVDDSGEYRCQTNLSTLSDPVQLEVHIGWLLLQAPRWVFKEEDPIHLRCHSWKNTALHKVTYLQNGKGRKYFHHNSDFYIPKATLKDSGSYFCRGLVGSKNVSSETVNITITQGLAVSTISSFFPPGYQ

KD fold (SG1 = 1)	Binder
1 fold	B1
0.16 fold	B2
0.06 fold	B3
0.03 fold	B4
0.06 fold	B5
0.04 fold	B6
0.07 fold	B7
0.06 fold	B8

Molecular target: T4, human FcγRIIaR extracellular domain, …
Assay: SPR; KD of SG1 divided by KD of the variant
Protocol: (§1) Regarding such interactions, KD values were calculated using the following 1:1 binding model described in BIACORE® T100 Software Handbook BR1006-48 Edition AE.
(§2) The behavior of interacting molecules according to the 1:1 binding model on BIACORE® can be described by Equation 1: Req=C·R max/(KD+C)+RI, wherein, Req is a plot of steady-state binding levels to analyte concentration. C is concentration, RI is bulk refractive index contribution in the sample, and Rmax is analyte binding capacity of the surface. When this equation is rearranged, KD can be expressed as Equation 2: KD=C·Rmax/(Req−RI)−C. KD can be calculated by substituting the values of Rmax, RI, and C into Equation 1 or Equation 2. From the current measurement conditions, RI=0, C=2 μmol/L can be used.
(§3) The resultant variants were expressed using M103202L889-SK1 as light chain and their affinity to human and cynoFcγRs were evaluated (Table 21).

KD fold (SG1 = 1)	Binder
1 fold	B9
0.6 fold	B10
1 fold	B11
0.6 fold	B12
1.5 fold	B13
0.5 fold	B14
1.5 fold	B15

Molecular target: T5, human FcγRIIb extracellular domain, …
Assay: SPR; KD of SG1 divided by KD of the variant
Protocol: as §1, §2, §3

KD fold (SG1 = 1)	Binder
1 fold	B9
0.8 fold	B10
0.9 fold	B11
4.2 fold	B12
1.3 fold	B13
0.4 fold	B14
0.8 fold	B15

Molecular target: T9, human FcγRIIIaV extracellular domain, His-tagged (human, UniProt P08637 17-208)
T9 construct: also called human FcgRIIIaV; not shown: His-tag added to the C-terminus
Assay: SPR; KD of SG1 divided by KD of the variant
Protocol: as §1, §2, §3

T9 sequence (P08637 17-208 F176V): as above

KD fold (SG1 = 1)	Binder
1 fold	B9
0.27 fold	B10
0.07 fold	B11
0.03 fold	B12
0.35 fold	B13
0.01 fold	B14
0.16 fold	B15

Molecular target: T10, cynomolgus monkey FcγRIIIaS extracellular domain, His-tagged (cynomolgus monkey, UniProt A3RFZ7 21-206 (rhesus entry))
T10 construct: also called cyno FcgRIIIaS; cynoFcγRIIIaS; not shown: His-tag added to the C-terminus
Assay: SPR; KD of SG1 divided by KD of the variant
Protocol: as §1, §2, §3

T10 sequence (A3RFZ7 21-206): as the sequence (A3RFZ7 21-206) above

KD fold (SG1 = 1)	Binder
1 fold	B9
0.55 fold	B10
0.15 fold	B11
0.06 fold	B12
0.46 fold	B13
0.1 fold	B14
0.13 fold	B15

Molecular target: T6, cynomolgus monkey FcγRIIb extracellular …
Assay: SPR; KD of SG1 divided by KD of the variant
Protocol: as §1, §2, §3

KD fold (SG1 = 1)	Binder
1 fold	B9
1.1 fold	B10
1.2 fold	B11
4.2 fold	B12
1.8 fold	B13
0.7 fold	B14
3.2 fold	B15
